Bridge positions count the residues as written; N and C are the ends. Ends that are not written are not given here.
Key:
[1] = target: β2 integrins on THP-1 cells; test: inhibition of THP-1 cell adhesion to coated LLG-C4-GST, phosphatase assay
[2] = target: β2 integrins on THP-1 cells; test: inhibition of THP-1 cell adhesion to coated von Willebrand factor, phosphatase assay
[3] = target: β2 integrins on THP-1 cells; test: inhibition (partial) of THP-1 cell adhesion to coated type IV collagen, phosphatase assay
[4] = target: β2 integrins on THP-1 cells; test: inhibition of THP-1 cell adhesion to coated LLG-C4-GST

IC50 [1] [µM] | IC50 [2] [µM] | IC50 [3] [µM] | fold less active than C(1-8;3-9) [4] [fold] | Binder
20 | 20 | 200 |  | CPCFLLGCC (disulfide 1-8, 3-9) [C(1-8;3-9) peptide]
 |  |  | 20 | CPCFLLGCC (disulfide 1-9, 3-8) [C(1-9;3-8) peptide]

Reference: patent publication US20040259798A1
